These results are taken from patent publication US20240262879A1 (Boehringer Ingelheim, published 2024).

Residue numbers refer to the chain shown, from its start. A value given as a limit tells only on which side of the number the result lay.

T1: Interleukin-12 (IL-12) (human, UniProt P29459 23-219; P29460 23-328)
T1 sequence 1: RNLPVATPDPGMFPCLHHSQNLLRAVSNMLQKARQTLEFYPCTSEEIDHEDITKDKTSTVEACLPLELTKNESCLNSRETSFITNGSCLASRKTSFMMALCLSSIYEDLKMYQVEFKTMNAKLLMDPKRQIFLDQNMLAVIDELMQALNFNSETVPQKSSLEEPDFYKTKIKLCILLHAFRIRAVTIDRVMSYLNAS
T1 sequence 2: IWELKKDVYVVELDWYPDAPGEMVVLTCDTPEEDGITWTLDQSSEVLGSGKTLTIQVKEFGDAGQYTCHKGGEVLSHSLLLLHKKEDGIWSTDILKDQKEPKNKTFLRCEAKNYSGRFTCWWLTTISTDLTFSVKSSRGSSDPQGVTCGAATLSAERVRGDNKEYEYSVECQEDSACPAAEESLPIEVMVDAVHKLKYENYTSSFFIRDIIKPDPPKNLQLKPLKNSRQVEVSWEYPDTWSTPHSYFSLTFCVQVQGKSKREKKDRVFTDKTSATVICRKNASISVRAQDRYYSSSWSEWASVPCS

B1: BI-039 (VHH)
VHH: QVQLVESGGGLVQAGGSLRLSCAASGRTFETIAMGWFRQVPGKEREFVAVIRGSGVATYYPDSVKGRFTISKDSAKNTVYLQMNNLKPEDTAVYYCAATTNRFKNTDYTTYDYWGQGTQVTVSS
B2: BI-119 (VHH)
VHH: B1 VHH with Q1E, A14P, V40A, D62E, A75S, N85S, K87R, P88A, T106R
B3: BI-123 (VHH)
VHH: B1 VHH with Q1E, A14P, V40A, Y59S, D62E, A75S, N85S, K87R, P88A
B4: BI-120 (VHH)
VHH: B1 VHH with Q1E, A14P, V40A, D62E, A75S, N85S, K87R, P88A, D107E
B5: BI-063 (VHH)
VHH: B1 VHH with Q1E, A14P, V40A, A75S, N85S, K87R, P88A
notes: Variant of BI-039; also called 61-Gft-106; BI-063 VHH
B6: BI-117 (VHH)
VHH: B1 VHH with Q1E, A14P, V40A, D62E, A75S, N85S, K87R, P88A
notes: also called 61-Gft-106_D62E
B7: BI-048 (VHH)
VHH: EVQLVESGGGLVQPGGSLRLSCAASGRTFETIAMGWFRQAPGKGLEFVAVIRGSGVATYYAESVKGRFTISKDSSKNTVYLQMNSLRAEDTAVYYCAATTNRFKNTDYTTYDYWGQGTQVTVSS
notes: Humanised variant of BI-039, the selected masking domain; also called Mix 13
B8: BI-049 (VHH)
VHH: B7 VHH with T106R, D107E
notes: Variant of BI-039, mask of BI-054; also called Mix 15
B9: BI-057 (Fc fusion)
chain 1: EPKSSDKTHTCPPCPAPEAAGGPSVFLFPPKPKDTLMISRTPEVTCVVVDVSHEDPEVKFNWYVDGVEVHNAKTKPREEQYNSTYRVVSVLTVLHQDWLNGKEYKCKVSNKALPAPIEKTISKAKGQPREPQVYTLPPSREEMTKNQVSLWCLVKGFYPSDIAVEWESNGQPENNYKTTPPVLDSDGSFFLYSKLTVDKSRWQQGNVFSCSVMHEALHNHYTQKSLSLSPGGGGGSGGGGGPLGVRGGGGGSIWELKKDVYVVELDWYPDAPGEMVVLTCDTPEEDGITWTLDQSSEVLGSGKTLTIQVKEFGDAGQYTCHKGGEVLSHSLLLLHKKEDGIWSTDILKDQKEPKNKTFLRCEAKNYSGRFTCWWLTTISTDLTFSVKSSRGSSDPQGVTCGAATLSAERVRGDNKEYEYSVECQEDSACPAAEESLPIEVMVDAVHKLKYENYTSSFFIRDIIKPDPPKNLQLKPLKNSRQVEVSWEYPDTWSTPHSYFSLTFCVQVQGKSKREKKDRVFTDKTSATVICRKNASISVRAQDRYYSSSWSEWASVPCSGGGGSGGGGSGGGGSRVIPVSGPARCLSQSRNLLKTTDDMVKTAREKLKHYSCTAEDIDHEDITRDQTSTLKTCLPLELHKNESCLATRETSSTTRGSCLPPQKTSLMMTLCLGSIYEDLKMYQTEFQAINAALQNHNHQQIILDKGMLVAIDELMQSLNHNGETLRQKPPVGEADPYRVKMKLCILLHAFSTRVVTINRVMGYLSSAGSGGLRELHLDNN
chain 2: EPKSSDKTHTCPPCPAPEAAGGPSVFLFPPKPKDTLMISRTPEVTCVVVDVSHEDPEVKFNWYVDGVEVHNAKTKPREEQYNSTYRVVSVLTVLHQDWLNGKEYKCKVSNKALPAPIEKTISKAKGQPREPQVYTLPPSREEMTKNQVSLSCAVKGFYPSDIAVEWESNGQPENNYKTTPPVLDSDGSFFLVSKLTVDKSRWQQGNVFSCSVMHEALHNRFTQKSLSLSPGGGGGSGGGGSGGGGSGGGGSGGGGSEVQLVESGGGLVQPGGSLRLSCAASGRTFETIAMGWFRQAPGKGLEFVAVIRGSGVATYYAESVKGRFTISKDSSKNTVYLQMNSLRAEDTAVYYCAATTNRFKNTDYTTYDYWGQGTQVTVSSA
notes: Knob-into-hole heterodimer; human p40, mouse p35; also called chimeric IL-12 Fc fusion protein containing collagen I TME linker

The target in one assay is T1, Interleukin-12 (IL-12). In words: cell-based or functional assay.
For the molecule B1, the midpoint of inhibition, the IC50, lay at 0.61 nM.

Consider B2, for which the IC50 (usually the midpoint of a concentration-inhibition curve) amounted to 2.4 nM.

With B3, the “IC50” value turned out to be 10 nM.

Consider B4, for which the “IC50” value stood at 2.5 nM.

As for B5, the “IC50” value was determined as 0.89 nM.

For the molecule B6, 0.36 nM corresponded to half-maximal inhibition (IC50).

Take B7: the “IC50” value came out at 0.44 nM. The IC50 values of the last two molecules are within 1.5-fold of each other.

Regarding B8, the “IC50” value is 5.7 nM.

The next assay has as its target T1, Interleukin-12 (IL-12). Put plainly: affinity for IL-12; method not stated.
Take B1: the Kd (as a rule, the free concentration of one partner at which half of the binding sites on the other are occupied at equilibrium, for simple one-to-one binding) amounted to 3.5 nM.

B2 had a Kd of 8.5 nM. Compared with the last molecule, the Kd is about 2.4-fold higher.

B3 showed a Kd of 30 nM.

B4: the Kd was found to be 4.1 nM.

The molecule B5 returned a Kd of 3.4 nM. The Kd values of the last two molecules are within 1.5-fold of each other.

Molecule B6 displayed a Kd of 3 nM. This Kd and that of the molecule before are within 1.5-fold of each other.

Molecule B7 gave a Kd of 3.7 nM.

B8 returned a dissociation constant (Kd) of 12 nM.

The target of a further assay is collagen present in fibrotic rat livers (rat). In words: 24 h incubation with fibrotic rat liver slices, recovered protein by MSD U-PLEX. Here is the method:
(§1) FIGS. 26A-26B: Precision cut liver slices were prepared from fibrotic rat livers. IL-12 Fc fusion proteins (BI-057 or BI-065; in amounts indicated in figure legends) were added to the slices and incubated for 24 hours (FIG. 26A) or 2 hours followed by 22 h recovery period (FIG. 26B). After 2 h incubation, fusion proteins were thoroughly washed and incubated for another 22 h in medium before harvest. After 24 h, slices were collected, lysed and homogenized. The amount of IL-12 Fc fusion proteins recovered from the slices was determined with the MSD U-PLEX Biomarker Assay using IL-12 Fc fusion proteins as standards.
(§2) Briefly, tissue cores are cut from the fibrotic rat liver using a 5 mm cylindrical motorized tissue coring press (Alabama R&D, MD5000), and 300 μm thick tissue slices are cut using a tissue slicer (Alabama R&D, MD6000). All tissue slices are cultured with a floating culture system (60 rpm) in 12 well plates (Nunc) in a humidified incubator, 95% O₂/5% CO₂, 37° C. in 1.3 mL supplemented William's Medium E (Life Technologies).
B9: the “fold decrease in fold recovery from liver slices against BI-065” value was greater than 10 fold.

The target of the next assay is T2, rat collagen I (rat, UniProt P02454 152-1207; P02466 86-1125).
T2 construct: Bought; also called Rat collagen (Corning)
T2 sequence (P02454 152-1207, chain 1 of 2): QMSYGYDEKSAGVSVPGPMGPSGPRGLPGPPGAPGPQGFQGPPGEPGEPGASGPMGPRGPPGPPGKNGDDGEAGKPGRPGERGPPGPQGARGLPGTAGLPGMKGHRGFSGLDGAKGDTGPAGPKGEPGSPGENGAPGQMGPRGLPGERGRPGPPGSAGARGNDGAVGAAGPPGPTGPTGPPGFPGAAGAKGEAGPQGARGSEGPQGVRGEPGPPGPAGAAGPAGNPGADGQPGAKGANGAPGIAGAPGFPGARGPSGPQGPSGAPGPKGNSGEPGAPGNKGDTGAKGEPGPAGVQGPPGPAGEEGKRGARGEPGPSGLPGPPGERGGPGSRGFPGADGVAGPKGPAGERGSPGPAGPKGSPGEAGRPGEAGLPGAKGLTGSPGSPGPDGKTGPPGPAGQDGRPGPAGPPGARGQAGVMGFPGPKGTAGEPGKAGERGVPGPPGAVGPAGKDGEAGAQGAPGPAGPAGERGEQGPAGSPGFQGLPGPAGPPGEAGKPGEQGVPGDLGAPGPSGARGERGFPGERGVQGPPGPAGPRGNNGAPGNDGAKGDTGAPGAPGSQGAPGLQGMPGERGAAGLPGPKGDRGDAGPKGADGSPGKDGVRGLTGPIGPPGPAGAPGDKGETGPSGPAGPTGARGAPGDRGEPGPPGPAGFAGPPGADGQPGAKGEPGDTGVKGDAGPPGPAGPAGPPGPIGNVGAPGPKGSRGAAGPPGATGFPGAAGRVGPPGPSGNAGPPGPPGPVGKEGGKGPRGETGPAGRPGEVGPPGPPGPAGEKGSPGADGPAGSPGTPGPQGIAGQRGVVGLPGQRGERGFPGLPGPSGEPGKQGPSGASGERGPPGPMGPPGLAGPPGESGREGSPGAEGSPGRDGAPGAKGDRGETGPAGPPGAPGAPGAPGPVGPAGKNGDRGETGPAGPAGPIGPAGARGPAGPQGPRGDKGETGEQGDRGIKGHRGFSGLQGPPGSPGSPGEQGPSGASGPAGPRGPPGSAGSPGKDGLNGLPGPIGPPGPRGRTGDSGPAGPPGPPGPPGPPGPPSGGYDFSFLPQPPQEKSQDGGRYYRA
T2 sequence (P02466 86-1125, chain 2 of 2): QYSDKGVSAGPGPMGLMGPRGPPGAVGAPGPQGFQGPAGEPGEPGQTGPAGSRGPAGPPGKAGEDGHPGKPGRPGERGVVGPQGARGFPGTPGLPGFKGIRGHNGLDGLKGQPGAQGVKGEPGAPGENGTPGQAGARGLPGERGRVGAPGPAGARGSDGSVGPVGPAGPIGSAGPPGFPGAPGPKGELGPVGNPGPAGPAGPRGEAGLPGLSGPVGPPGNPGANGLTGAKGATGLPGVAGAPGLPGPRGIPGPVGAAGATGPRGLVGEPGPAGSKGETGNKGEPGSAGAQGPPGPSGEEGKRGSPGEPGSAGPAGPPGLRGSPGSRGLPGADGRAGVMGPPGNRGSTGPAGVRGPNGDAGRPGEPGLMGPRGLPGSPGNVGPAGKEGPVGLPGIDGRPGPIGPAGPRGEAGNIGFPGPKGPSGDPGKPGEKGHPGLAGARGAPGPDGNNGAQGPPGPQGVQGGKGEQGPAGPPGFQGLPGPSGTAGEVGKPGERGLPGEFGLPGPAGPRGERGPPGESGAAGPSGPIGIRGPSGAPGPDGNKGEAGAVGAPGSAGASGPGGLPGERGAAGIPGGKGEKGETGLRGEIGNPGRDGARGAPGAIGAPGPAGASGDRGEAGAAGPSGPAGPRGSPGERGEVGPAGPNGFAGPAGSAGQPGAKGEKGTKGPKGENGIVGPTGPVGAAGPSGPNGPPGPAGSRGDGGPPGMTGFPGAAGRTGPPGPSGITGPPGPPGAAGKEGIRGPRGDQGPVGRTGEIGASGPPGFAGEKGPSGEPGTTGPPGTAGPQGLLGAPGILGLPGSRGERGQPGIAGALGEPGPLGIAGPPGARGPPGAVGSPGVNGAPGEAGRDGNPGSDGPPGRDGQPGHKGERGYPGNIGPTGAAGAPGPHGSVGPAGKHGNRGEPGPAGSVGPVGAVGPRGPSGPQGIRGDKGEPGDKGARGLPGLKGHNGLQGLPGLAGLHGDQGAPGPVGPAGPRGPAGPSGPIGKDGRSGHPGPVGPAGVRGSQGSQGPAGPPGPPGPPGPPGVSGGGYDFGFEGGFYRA
In words: ELISA on plates coated with rat collagen I (Corning), detection with anti-human Fc. Here is the method:
(§3) Collagen binding properties were further evaluated in ELISA assay. Chimeric IL-12 Fc fusion protein BI-065 or chimeric IL-12 Fc fusion protein containing collagen I TME linker BI-057 were added to collagen I-coated plates. To this end, plates were coated either with rat collagen I (FIG. 25A) or with human skin collagen I (FIG. 25B).
(§4) Briefly, high binding microplates (greiner) are coated over night at 4° C. with rat collagen (Corning) or human collagen (Millipore/R&D) diluted in coating buffer (Invitrogen) with a concentration of 0.005 mg/mL. IL-12 Fc fusion proteins are diluted in PBS+1% BSA and added to collagen precoated plates for 2 hours. The plates are blocked with 1% BSA before addition of proteins to minimize unspecific binding. Next, plates are washed 3× followed by incubation with biotinylated anti-human Fc antibody (Invitrogen). After additional washing step, Streptavidin-HRP are added to the plates. Substrate are added to plates after a washing step and plates are read in ELISA reader (Tecan).
For orientation: ELISA stands for enzyme-linked immunosorbent assay.
Turning to B9, the EC50 (usually the concentration that produces a half-maximal response) turned out to be 26 nM.

The target in a further assay is T3, human collagen type 1 (human, UniProt P02452 162-1218; P08123 80-1119, limits assumed).
T3 construct: Bought or cell-made collagen; also called human collagen I; human collagen (Millipore/R&D)
T3 sequence (P02452 162-1218 limits assumed, chain 1 of 2): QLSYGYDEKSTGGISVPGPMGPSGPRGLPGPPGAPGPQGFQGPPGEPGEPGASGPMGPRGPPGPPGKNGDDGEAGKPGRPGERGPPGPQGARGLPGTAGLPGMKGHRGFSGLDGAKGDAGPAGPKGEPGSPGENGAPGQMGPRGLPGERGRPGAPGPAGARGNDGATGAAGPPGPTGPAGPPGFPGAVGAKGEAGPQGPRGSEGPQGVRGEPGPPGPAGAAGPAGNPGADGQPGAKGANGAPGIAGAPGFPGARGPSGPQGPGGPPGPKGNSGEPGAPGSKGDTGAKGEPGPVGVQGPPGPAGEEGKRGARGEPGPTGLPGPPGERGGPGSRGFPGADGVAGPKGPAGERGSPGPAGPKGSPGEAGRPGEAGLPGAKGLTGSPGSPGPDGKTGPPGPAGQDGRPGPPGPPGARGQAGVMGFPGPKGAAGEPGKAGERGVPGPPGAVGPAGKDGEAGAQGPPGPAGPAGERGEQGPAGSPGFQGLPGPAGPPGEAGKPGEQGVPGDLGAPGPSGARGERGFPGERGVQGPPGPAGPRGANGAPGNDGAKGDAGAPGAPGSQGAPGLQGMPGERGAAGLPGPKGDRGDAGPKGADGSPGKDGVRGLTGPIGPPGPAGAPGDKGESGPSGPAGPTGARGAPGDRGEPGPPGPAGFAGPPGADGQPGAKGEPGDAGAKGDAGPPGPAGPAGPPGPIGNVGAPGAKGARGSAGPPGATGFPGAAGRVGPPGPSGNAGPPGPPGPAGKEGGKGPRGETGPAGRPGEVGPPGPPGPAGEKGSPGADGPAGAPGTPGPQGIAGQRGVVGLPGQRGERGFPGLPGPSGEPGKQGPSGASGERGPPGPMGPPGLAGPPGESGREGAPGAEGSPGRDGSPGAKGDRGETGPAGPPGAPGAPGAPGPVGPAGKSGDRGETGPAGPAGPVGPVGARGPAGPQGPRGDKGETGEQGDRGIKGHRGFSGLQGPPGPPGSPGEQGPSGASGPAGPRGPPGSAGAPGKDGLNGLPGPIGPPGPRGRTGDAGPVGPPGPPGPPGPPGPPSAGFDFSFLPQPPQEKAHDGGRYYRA
T3 sequence (P08123 80-1119 limits assumed, chain 2 of 2): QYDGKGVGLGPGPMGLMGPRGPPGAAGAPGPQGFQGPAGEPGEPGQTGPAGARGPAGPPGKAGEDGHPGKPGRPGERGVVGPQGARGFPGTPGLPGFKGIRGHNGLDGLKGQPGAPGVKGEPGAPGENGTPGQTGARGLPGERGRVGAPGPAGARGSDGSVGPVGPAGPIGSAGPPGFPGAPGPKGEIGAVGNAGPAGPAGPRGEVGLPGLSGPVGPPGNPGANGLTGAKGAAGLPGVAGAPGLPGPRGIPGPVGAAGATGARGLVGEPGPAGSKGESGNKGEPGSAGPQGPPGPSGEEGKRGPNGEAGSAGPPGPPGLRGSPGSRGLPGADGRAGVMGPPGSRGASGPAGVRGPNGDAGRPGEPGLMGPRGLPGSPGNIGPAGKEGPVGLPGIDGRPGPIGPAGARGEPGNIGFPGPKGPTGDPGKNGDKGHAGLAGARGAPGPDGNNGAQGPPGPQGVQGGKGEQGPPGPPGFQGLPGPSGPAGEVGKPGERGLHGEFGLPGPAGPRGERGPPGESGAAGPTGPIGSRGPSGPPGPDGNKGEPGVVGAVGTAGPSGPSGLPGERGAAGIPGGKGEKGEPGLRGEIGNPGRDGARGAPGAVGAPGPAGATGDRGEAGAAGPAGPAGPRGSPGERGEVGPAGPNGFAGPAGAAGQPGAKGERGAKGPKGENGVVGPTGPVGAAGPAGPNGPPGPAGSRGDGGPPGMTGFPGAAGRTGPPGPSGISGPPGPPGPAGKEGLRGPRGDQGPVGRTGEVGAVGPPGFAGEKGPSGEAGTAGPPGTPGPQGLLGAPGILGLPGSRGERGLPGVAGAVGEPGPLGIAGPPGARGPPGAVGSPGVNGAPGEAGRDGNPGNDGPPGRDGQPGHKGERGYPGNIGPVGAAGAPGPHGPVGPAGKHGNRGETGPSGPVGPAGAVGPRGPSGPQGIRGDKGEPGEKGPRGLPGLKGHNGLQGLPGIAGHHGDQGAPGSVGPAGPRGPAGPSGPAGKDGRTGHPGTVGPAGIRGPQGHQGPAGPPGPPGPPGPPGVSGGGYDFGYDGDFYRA
Put plainly: ELISA on plates coated with human collagen I (Millipore/R&D), detection with anti-human Fc. Here is the method:
as §3, §4
As for B9, the midpoint of the response, the EC50, lay at 75 nM.

Another assay concerns the target collagen present in fibrotic rat livers (rat). Put plainly: 2 h incubation, wash and 22 h culture of fibrotic rat liver slices, recovered protein by MSD U-PLEX. Here is the method: as §1, §2
In the case of B9, the “fold recovery from liver slices against BI-065” value was 10 fold.
